Where only a bound is given, the exact number is not on record here.

Test [1] addresses T1, SARS-CoV-2 receptor binding domain (RBD), wild type (BEI NR52309) (SARS-CoV-2, UniProt P0DTC2 319-541). In words: BLI competition on His-tagged RBD, signal of the 2nd Ab after 1st Ab 324.
The target of test [2] is Spike of authentic SARS-CoV-2/SB2-P4-PB virus (SARS-CoV-2, UniProt P0DTC2 14-1273). Description: cell-based or functional assay.
The target in test [3] is T1, SARS-CoV-2 receptor binding domain …. Description: BLI competition on His-tagged RBD, signal of the 2nd Ab after 1st Ab 236.
Test [4] addresses SARS-CoV-2 Spike N439K on pseudotyped virus (SARS-CoV-2, UniProt P0DTC2 14-1273). Description: cell-based or functional assay.
Test [5] deals with SARS-CoV-2 Spike D614G on pseudotyped virus (SARS-CoV-2, UniProt P0DTC2 14-1273). Description: cell-based or functional assay.
Test [6] deals with SARS-CoV-2 Spike V483A on pseudotyped virus (SARS-CoV-2, UniProt P0DTC2 14-1273). In words: cell-based or functional assay.
The target in test [7] is SARS-CoV-2 Spike A475V on pseudotyped virus (SARS-CoV-2, UniProt P0DTC2 14-1273). In words: cell-based or functional assay.
In test [8] the target is SARS-CoV-2 Spike L452R on pseudotyped virus (SARS-CoV-2, UniProt P0DTC2 14-1273). In words: cell-based or functional assay.
Test [9] concerns the target T1, SARS-CoV-2 receptor binding domain …. Description: BLI competition on His-tagged RBD, signal of the 2nd Ab after 1st Ab 298.

B1: mAb 236 (antibody, V domains shown)
VH: QVQLVQSGAEVKKPGASVKVSCKASGGTFTSYGINWVRQAPGQGLEWMGWMNPNSGNTGYAQKFQGRVTMTRDTSTSTVYMELSSLRSEDTAVYYCASRGIQLLPRGMDVWGQGTTVTVSS
VL: not shown
As to B1, the RBD binding stood at 0.4 in [1] and 0.3 in [3]. The “IC50 SARS-CoV2/SB2-P4-PB (authentic virus), IgG” value (“IC50 SARS-CoV2/SB2-P4-PB” below) in [2] was determined as 5.5 µg/mL. In addition, the “Potency change vs WT PsV” value in test [4] is 2.1 fold; in test [5], 0.7 fold; in test [6] it was 1.9 fold; in test [7], 1.4 fold; in [8], -0.6 fold.

B2: mAb 52 (antibody, V domains shown)
VH: QVQLVQSGAEVKKPGSSVKVSCKASGYTFTSYGISWVRQAPGQGLEWMGGIIPMFGTTNYAQKFQGRVTITADKSTSTAYMELSSLRSEDTAVYYCARDRGDTIDYWGQGTLVTVSS
VL: DIQMTQSPSSLSASVGDRVTITCRASQGISNNLNWYQQKPGKAPKLLIYAASSLESGVPSRFSGSGSGTDFTLTISSLQPEDFATYYCQQGNGFPLTFGPGTKVDIKR
Take B2: the RBD binding came out at 1.5 in test [1], 1.4 in test [9] and 1.5 in test [3]. In test [2], the “IC50 SARS-CoV2/SB2-P4-PB” value stood at 6.2 µg/mL. Also, the “Potency change vs WT PsV” value in [4] was 1.8 fold; in test [5] it was 0.4 fold; in test [7], 1.1 fold. Also, the “IC50 (PsV neutralisation)” value in test [8] was greater than 100 µg/mL.

B3: mAb 46 (antibody, V domains shown)
VH: EVQLLESGGGLVQPGRSLRLSCAASGFTFSSYAMSWVRQAPGKGLEWVSTIYSGGSTYYADSVKGRFTISRDNSKNTLYLQMNSLRAEDTAVYYCARGDSRDAFDIWGQGTMVTVSS
VL: DIQMTQSPSSLSASVGDRVTITCRASQSISSWLAWYQQKPGKAPKLLIYDASNLETGVPSRFSGSGSGTDFTLTISSLQPEDFATYYCQQSYSTPFTFGPGTKVDIKR
Consider B3, for which the RBD binding in test [1], in test [9] and in test [3] was 1.7 in each case. The “IC50 SARS-CoV2/SB2-P4-PB” value in test [2] turned out to be 19 µg/mL. The “Potency change vs WT PsV” value was 4.1 fold in [4], 1.9 fold in test [5], 2 fold in test [6] and 1.9 fold in [7]. Moreover, the “IC50 (PsV neutralisation)” value in [8] is greater than 100 µg/mL.

B4: mAb 82 (antibody, V domains shown)
VH: QVQLVQSGAEVKKPGASVKVSCKASGGSFSTSAFYWVRQAPGQGLEWMGWINPYTGGTNYAQKFQGRVTMTRDTSTSTVYMELSSLRSEDTAVYYCARSRALYGSGSYFDYWGQGTLVTVSS
VL: DIQMTQSPSSLSASVGDRVTITCRASQVISNYLAWYQQKPGKAPKLLIYDASNLETGVPSRFSGSGSGTDFTLTISSLQPEDFATYYCQQSFSPPPTFGQGTRLEIKR
B4: the RBD binding was 0.8 in test [1] and 0.5 in test [9]. Moreover, the “Potency change vs WT PsV” value is 1.1 fold in test [4], 0.2 fold in [6], -5.7 fold in [7] and -8.1 fold in [8].

B5: mAb 324 (antibody, V domains shown)
VH: QVQLVQSGAEVKKPGASVKVSCKASGGTFNNYGISWVRQAPGQGLEWMGWMNPNSGNTGYAQKFQGRVTMTRDTSTSTVYMELSSLRSEDTAVYYCARVGDYGDYIVSPFDLWGRGTLVTVSS
VL: DIQMTQSPSSLSASVGDRVTITCRASQSITTYLNWYQQKPGKAPKLLIYDASNLETGVPSRFSGSGSGTDFTLTISSLQPEDFATYYCQQSYSTPPTFGQGTKVEIKR
For the molecule B5, the RBD binding is 0.4 in test [1] and 0.3 in test [3]. Further, in test [2], the “IC50 SARS-CoV2/SB2-P4-PB” value is 21 µg/mL. Further, the “Potency change vs WT PsV” value in test [4] was -1 fold; in [5], 2.6 fold; in test [6] it was -0.4 fold; in test [7], -0.6 fold; in [8], 0.8 fold.

These data come from patent US20250263469A1 (HOSPITAL FOR SICK CHILDREN, published 2025).
